Key:
DrLigA = DrLigA (Deinococcus radiodurans, UniProt Q9RSQ5 1-700); test: EMSA; 5 mM MgSO4, 5 mM MnSO4, 300 µM NAD+; 100 nM DNA, tight at 10-fold protein; 20 mM Bis-Tris pH 6.0, 5 mM MgSO4, 5 mM MnSO4, 300 µM NAD+, 25% glycerol; 100 nM DNA; 15 min at room temperature; 6% PAGE, 1x TBE, 4 °C
DrLigAΔBRCT = DrLigAΔBRCT (Deinococcus radiodurans, UniProt Q9RSQ5 1-600); test: EMSA; 5 mM MgSO4, 5 mM MnSO4, 300 µM NAD+; no complex up to 1:10 DNA:protein (100 nM DNA); 20 mM Bis-Tris pH 6.0, 5 mM MgSO4, 5 mM MnSO4, 300 µM NAD+, 25% glycerol; 100 nM DNA; 15 min at room temperature; 6% PAGE, 1x TBE, 4 °C

Binder	binding result (DrLigA)	binding result (DrLigAΔBRCT)
single nicked 40 nt dsDNA (Template T + N1 + N2) (dsDNA, none; 5' end at nick not phosphorylated) DNA 1: ATTGAGTGGACAAAGTATCGTAGGGTAGTATTGGTGGATA DNA 2: TATCCACCAATACTACCCTA DNA 3: CGATACTTTGTCCACTCAAT	binds	no binding
single nick with 10 nt 5'-flap 40 nt dsDNA (Template T + F1 + N2) (dsDNA, none; 5' end of flap not phosphorylated) DNA 1: ATTGAGTGGACAAAGTATCGTAGGGTAGTATTGGTGGATA DNA 2: TATCCACCAATACTACCCTA DNA 3: TAACGCTGGGCGATACTTTGTCCACTCAAT	–	no binding
1 nt gapped 40 nt dsDNA (Template T + G1 + G2) (dsDNA, none; 5' end at gap not phosphorylated) DNA 1: ATTGAGTGGACAAAGTATCGTAGGGTAGTATTGGTGGATA DNA 2: TATCCACCAATACTACCCTAC DNA 3: ATACTTTGTCCACT	binds	no binding
